The target of one experiment is T1, human LAG-3 (human, UniProt P18627 23-450, limits assumed).
T1 construct: Selections used human LAG-3-Fc, human LAG-3-6His, a 30 aa LAG-3 peptide and/or cells with cynomolgus LAG-3; also called CD223
T1 sequence (looked up): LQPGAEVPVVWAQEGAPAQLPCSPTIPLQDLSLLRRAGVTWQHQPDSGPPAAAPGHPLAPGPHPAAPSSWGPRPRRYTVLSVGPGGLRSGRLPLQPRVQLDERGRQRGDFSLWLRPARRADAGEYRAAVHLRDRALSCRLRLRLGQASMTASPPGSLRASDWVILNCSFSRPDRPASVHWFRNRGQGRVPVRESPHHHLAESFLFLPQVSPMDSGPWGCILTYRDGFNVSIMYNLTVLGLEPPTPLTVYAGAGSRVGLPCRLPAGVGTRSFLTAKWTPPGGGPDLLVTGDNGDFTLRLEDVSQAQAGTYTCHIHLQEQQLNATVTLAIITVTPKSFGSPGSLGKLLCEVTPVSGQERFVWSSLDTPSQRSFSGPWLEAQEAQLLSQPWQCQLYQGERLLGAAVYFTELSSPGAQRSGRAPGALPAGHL
The experiment is described as follows: Fab phage display selection; periplasmic extracts screened by ELISA or flow cytometry. The source says:
Anti-LAG-3 antibodies were identified by generation and selection of an immunized Fab phage display library. […] Per mouse, a Fab library was then generated by random-primed cDNA using total RNA as a template to amplify variable regions from mouse antibody genes. Heavy and kappa chain amplicons were combined and cloned into phagemid vectors. […] The 30 amino acid human LAG-3 peptide is a biotinylated peptide comprising the amino acid sequence of […] (SEQ ID NO: 199). Periplasmic extracts of selected Fab clones were then screened by ELISA or flow cytometry. Antibody sequencing and off-rate analysis were then performed on anti-LAG-3 Fabs.
In general terms: An ELISA detects its analyte on a solid surface through an enzyme-linked reagent.

Experiment [1] addresses T2, human LAG-3 expressed on cells (human, UniProt P18627 23-525).
T2 construct: whole, on cells; also called CD223
T2 sequence (looked up): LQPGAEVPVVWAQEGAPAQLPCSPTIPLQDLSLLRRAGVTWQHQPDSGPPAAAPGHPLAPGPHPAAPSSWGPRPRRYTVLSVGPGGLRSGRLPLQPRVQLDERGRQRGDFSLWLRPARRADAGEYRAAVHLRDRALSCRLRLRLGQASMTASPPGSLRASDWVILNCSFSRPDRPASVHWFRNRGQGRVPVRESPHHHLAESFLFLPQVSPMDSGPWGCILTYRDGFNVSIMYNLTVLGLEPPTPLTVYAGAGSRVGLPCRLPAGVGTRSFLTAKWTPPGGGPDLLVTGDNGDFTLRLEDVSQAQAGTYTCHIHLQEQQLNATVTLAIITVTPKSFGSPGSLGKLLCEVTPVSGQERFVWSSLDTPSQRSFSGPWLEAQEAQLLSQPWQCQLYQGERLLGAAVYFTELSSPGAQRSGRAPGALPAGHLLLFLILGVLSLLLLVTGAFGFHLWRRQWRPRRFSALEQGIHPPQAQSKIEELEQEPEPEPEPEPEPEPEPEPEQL
The experiment is described as follows: flow cytometry, Fab periplasmic extract on Jurkat cells expressing human LAG-3 (FIGS. 1A-1C). On the procedure: The anti-LAG-3 Fabs from periplasmic extracts were tested for binding to LAG-3-expressing cells using flow cytometry. Briefly, wild type and human LAG-3-expressing Jurkat cells were plated at 2×10⁵ cells/well in sample buffer (PBS (Gibco, Cat #10010-015)+0.5% FBS (Gibco, Cat #10270-106)) in 96-well U-bottom plates (Sarstedt). 22 μl of anti-LAG-3 Fab periplasmic extract and 83 μl of diluted anti-c-myc antibody (Gentaur, Clone #9E10, Cat #04-cmyc-9E10) were incubated for 30 minutes at room temperature. 100 μl of the periplasmic extract/anti-c-myc mixture was added to cells and then incubated for one hour on ice. Cells were washed three times and then incubated with a goat anti-mouse APC (BD Biosciences, Cat #550826) for 30 minutes on ice. Cells were washed three times and then analyzed with a FACS machine (BD Accuri6).
(In flow cytometry, cells or beads pass a laser one at a time.)

B1: P15G05 Fab (Fab, V domains shown)
VH: EVQLQQSGAELVKPGASVELSCTASGFNIRDTYMYWVKQRPEQGLEWIGRIDPANGNTKFDPKFQDRATMTADTSSNTAYLQLSSLTSEDTAVYYCTTYFYRYDVGGFDYWGQGTTLTVS
VL: EIVLTQSPALMAASPGEKVTITCSVSSSISSSNLHWYQQKSGTSPKLWIYGTSNLASGVPVRFSGSGSGTSYSLTISSMEAEDAATYYCQQWSSYPLTFGAGTKLELK
notes: Murine Fab, periplasmic extract
Take B1: the binding result (with human LAG-3; in experiment [1]) was “binds” throughout.

B2: P14F06 Fab (Fab, V domains shown)
VH: QVQMKQSGAELVKPGASVKLSCTASGFNIKDNYIHWVKQRPEQGLEWIGSIDPANGNTKYDPKFQGKASITADTSSNTAYLQLSSLTSEDTAVYYCASYFYRYDVGGFDYWGQGTTLTVS
VL: EIVLTQSPALMAASPGEKVTITCSVSSSISSSNLHWFQQKSGTSPKLWIYGTSNLASGVPVRFSGSGSGTSYSLTISSMEAEDAATYYCQQWSSYPFTFGSGTKLEIK
notes: as for B1
For the molecule B2, the binding result (with human LAG-3; in experiment [1]) was “binds” in each case.

B3: P14B07 Fab (Fab, V domains shown)
VH: QVQLQQPGAELVKPGASVKLSCTASGFNIKDNYIHWVKQRPEQGLEWIGSIDPANGNTKYDPKFQGKASITADTSSNTAYLQLSSLTSEDTTVYYCASYFYRYDVGGFDYWGQGTTLTVS
VL: ENVLTQSPALMAASPGEKVTITCSVSSSISSSNLHWYQQKSGTSPKLWIYGTSNLASGVPVRFSGSGSGTSYSLTISSMEAEDAATYYCQQWSSYPFTFGSGTKLEIK
notes: as for B1
Turning to B3, the binding result (with human LAG-3; in experiment [1]) was “binds” in each case.

B4: P01C09 Fab (Fab, V domains shown)
VH: QVQLKQSGAELVKPGASVKLSCTASGFNIKDTYMYWVKQRPEQGLEWIGRIDPANGNTKYDPKLQGKATITADTSSNTVYLQLSSLTSEDTAVFYCVIYSYRYDVGGFDYWGQGTTLTVS
VL: EIVLTQSPALMAASPGEKVTITCSVSSSISSSNLHWYQQKSGTSPKLWIYGTSNLASGVPVRFSGSGSGTSYSLTISSMEAEDAATYYCQQWSSYPFTFGSGTKLEIK
notes: as for B1
Take B4: the binding result (with human LAG-3; in experiment [1]) was “binds” each time.

B5: P14G03 Fab (Fab, V domains shown)
VH: QVQMKQSGAELVKPGASVKLSCTASGFNIKDTYIHWVKQRPGQGLEWIGEIDPANGNTKYDPKFQGKATITADTSSNTAYLQLSSLTSEDTAVYYCATYYYRYDVGGFDYWGQGTTLTVS
VL: DIVLTQSPALMAASPGEKVTITCSVSSSISSSNLYWFQQKSGTSPKLWIYGTSNLASGVPVRFSGSGSGTSYSLTISSMEAEDAATYYCQQWSSYPFTFGSGTKLEIK
notes: as for B1
With B5, the binding result (with human LAG-3; in experiment [1]) was “binds” throughout.

B6: P13B11 Fab (Fab, V domains shown)
VH: QVQLQQPGAELVKPGASVKLSCTASGFNIKDNYMDWVKQRPEQGLEWIGKIDPANGNTKYDPKFQGKATITADTSSNTAYLQLSSLTSEDTAVYYCATYYYRYDVGGFDYWGQGTTLTVS
VL: QIVLTQSPALMAASPGEKVTITCSVSSSISSSNLHWFQQKSGTSPKLWIYGTSNLASGVPVRFSGSGSGTSYSLTISSMEAEDAATYYCQQWSSYPFTFGSGTKLEIK
notes: as for B1
As for B6, the binding result (in the experiment with human LAG-3; in experiment [1]) was “binds” throughout.

B7: P13E02 Fab (Fab, V domains shown)
VH: QVQLQQPGAELVKPGASVKLSCTVSGFNIKDTYIHWVKQRPEQGLEWIGEIDPANGNSKYAPRFQGKATITADTSSNTAYLQLSSLTSEDTAVYYCATYYYRYDVGGFDYWGQGTTLTVS
VL: ENVLTQSPALMAASPGEKVTITCSVSSSISSSNLHWFQQKSGTSPKLWIYGTSNLASGVPVRFSGSGSGTSYSLTISSMEAEDAATYYCQQWSSYPFTFGSGTKLEIK
notes: as for B1
Take B7: the binding result (with human LAG-3; in experiment [1]) was “binds” in each case.

B8: P13H05 Fab (Fab, V domains shown)
VH: QVQLQQPGAELVKPGASVKLSCTASGFNIKDTYIHWVKQRPEQGLEWIGEIDPANDNTKYDPKFQGKATITADTSSNTAYLQLSSLTSEDTAVYYCATYYYRYDVGGFDYWGQGTTLTVS
VL: ENVLTQSPALMAASPGEKVTITCSVSSSISSSNLHWFQQKSGTSPKLWIYGTSNLASGVPVRFSGSGSGTSYSLTISSMEAEDAATYYCQQWSSYPFTFGSGTKLEIK
notes: as for B1
For B8, the binding result (in the experiment with human LAG-3; in experiment [1]) was “binds” throughout.

B9: P13F09 Fab (Fab, V domains shown)
VH: QVQLQQSGAELVKPGASVKLSCTASGFNIKDNYIHWVKQRPEQGLEWIGSIDPANGNTKYDPKFQGKASITADTSSNTAYLQLSSLTSEGTAVYYCASYFYRYDVGGFDYWGQGTTLTVS
VL: EIVLTQSPALMAASPGEKVTITCSVSSSISSSNLHWFQQKSGTSPKLWIYGTSNLASGVPVRFSGSGSGTSYSLTISSMEAEDAATYYCQQWSSYPFTFGSGTKLEIK
notes: as for B1
With B9, the binding result (with human LAG-3; in experiment [1]) was “binds” throughout.

B10: P13D04 Fab (Fab, V domains shown)
VH: QVQLQQSGAELVKPGASVKLSCTASGFNIKDNYMDWVKQRPEQGLEWIGKIDPANGNTKYDPKFQGKATITADTSSNTAYLQLSSLTSEDTAVYYCATYYYRYDVGGFDYWGQGTTLTVS
VL: DIVLTQSPALMAASPGEKVTITCSVSSSISSSNLHWFQQKSGTPPKLWIYGTSNLASGVPVRFSGSGSGTSYSLTISSMEAEDAATYYCQQWSSYPFTFGSGTKLEIK
notes: as for B1
Turning to B10, the binding result (with human LAG-3; in experiment [1]) was “binds” in each case.

B11: P13F02 Fab (Fab, V domains shown)
VH: QVQLQQPGAELVKPGASVKLSCTASGFNIKDTYIHWVKQRPEQGLDWVGEIDPANGHTKYDPKFQGKATITADTSSNTAYLQLSSLTSEDTAVYYCATYYYRYDVGGFDYWGQGTTLTVS
VL: ENVLTQSPALMAASPGEKVTITCSVSSSISSSNLHWFQQKSGTSPKLWIYGTSNLASGVPVRFSGSGSGTSYSLTISSMEAEDAATYYCQQWSSYPFTFGSGTKLEIK
notes: as for B1
Take B11: the binding result (with human LAG-3; in experiment [1]) was “binds” each time.

B12: P13C08 Fab (Fab, V domains shown)
VH: QVQLKQSGAELVKPGASVKLSCTASGFNIKDNYIHWVKQRPEQGLEWIGSIDPANGNTKYDPKFQGKASITADTSSNTAYLQLSSLTSEDTAVYYCASYFYRYDVGGFDYWGQGTTLTVS
VL: DVVMTQTPALMAASPGEKVTITCSVSSSISSSNLHWFQQKSGTSPKLWIYGTSNLASGVPVRFSGSGSGTSYSLTISSMEAEDAATYYCQQWSSYPFTFGSGTKLEIK
notes: as for B1
Take B12: the binding result (with human LAG-3; in experiment [1]) was “binds” in each case.

B13: P15B06 Fab (Fab, V domains shown)
VH: EVQLQQSGAELVKPGASVKLSCTASGFNIKDTYMYWVKQRPEQGLDWIGRIDPANGNTHFDPKFQGKATITADTSSNTAYLQLSSLTSEDTAVYYCSTYFYRYDVGGFDYWGQGTTLTVS
VL: QILLTQSPALMAASPGEKVTITCSVSSSISSSNLHWYQQKSGTSPKLWIYGTSNLASGVPVRFSGSGSGTSYSLTISSMEAEDAATYYCQQWSSYPLTFGAGTKLELK
notes: as for B1
As for B13, the binding result (in the experiment with human LAG-3; in experiment [1]) was “binds” in each case.

B14: P16D04 Fab (Fab, V domains shown)
VH: QVQLQQSGAELVKPGASVELSCTASGFNIRDTYMYWVKQRPEQGLEWIGRIDPANGNTKFDPKFQDRATMTADTSSNTAYLQLSSLTSEDTAVYYCTTYFYRYDVGGFDYWGQGTTLTVS
VL: ENVLTQSPALMAASPGEKVTITCSVSSSISSSNLHWYQQKSGTSPKLWIYGTSNLASGVPVRFSGSGSGTSYSLTISSMEAEDAATYYCQQWSSYPLTFGAGTKLELK
notes: as for B1
Take B14: the binding result (in the experiment with human LAG-3; in experiment [1]) was “binds” each time.
